B1: dfnA terminator (structured_RNA)
RNA: GGAAACACAAUGCGUUUGCGAUUUUUAAACCUGUGCUGAAUCGCAAACGCGUUUGUG
B2: dfnA* mutant terminator (dfnA mut) (structured_RNA)
RNA: GGAAACACAGUUUGCGAUUUUUAAACCUGUGCUGAAUCGCAAACUGUG

Molecular target: T1, NusA (Bacillus velezensis, UniProt A7Z4T1 1-373)
T1 sequence: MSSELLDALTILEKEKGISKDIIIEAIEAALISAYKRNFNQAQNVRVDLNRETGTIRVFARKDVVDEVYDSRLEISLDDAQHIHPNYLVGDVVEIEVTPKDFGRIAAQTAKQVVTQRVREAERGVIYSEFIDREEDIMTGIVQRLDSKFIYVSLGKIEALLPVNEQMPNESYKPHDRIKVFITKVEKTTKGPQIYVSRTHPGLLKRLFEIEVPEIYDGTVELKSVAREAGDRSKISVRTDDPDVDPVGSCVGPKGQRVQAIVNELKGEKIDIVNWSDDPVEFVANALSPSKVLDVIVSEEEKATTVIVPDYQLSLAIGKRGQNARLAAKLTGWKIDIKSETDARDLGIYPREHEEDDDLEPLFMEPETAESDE
Assay: DRaCALA filter binding; 50 mM NaH2PO4 pH 7.2, 100 mM NaCl, 0.1 mM EDTA, 1 mM MgCl2, 100 ug/mL BSA, 25 ug/mL total yeast RNA, 2.5 nM labeled RNA, 45 min, room temperature
Settings: protein: recombinant; tags: N-terminal His10-SUMO removed by bdSENP1; label: 5'-32P; hairpin

| Binder | binding result |
| --- | --- |
| B1 | binds |
| B2 | binds |

Reference: paper PMC12691694, “Bacillus velezensis LoaP promotes antitermination by antagonizing NusA”
